# Experimental data reported in publication PMC5082683 (PLoS Pathogens, 2016).
# B1: scFv A5 (scFv, V domains shown)
# VH: QVQLQESGPGLVKPSETLSLTCVVSGGSISSSNWWSWVRQPPGKGLEWIGEIYHSGSPNYNPSLKSRVTISVDKSKNQFSLKLSSVTAADTAVYYCARQMRQWGQGTLVTVSS
# VL: SSELTQDPAVSVALGQTVRITCQGDSLRSYYASWYQQKPGQAPVLVIYGKNNRPSGIPDRFSGSSSGNTASLTITGAQAEDEADYYCNSRDSSGNHNVFGGGTKLTVL
# notes: also called human single-chain variable domain antibody fragment A5
# Target: recombinant ectodomain of Gc (rGc) from Hantaan virus strain 76-118 (Hantaan virus strain 76-118, UniProt P08668)
# Experiment: SEC-MALS; Gc mixed with an excess of scFv A5, Tris pH 8
# Conditions: both partners purified
binder,measurement,value
B1,stoichiometry N,1
